The results in this text go back to publication PMC3430658, “Investigation of Real-Time Photorepair Activity on DNA via Surface Plasmon Resonance”.

Data set [1] concerns the target T1, CRY-DASH (VcCry1, MBP fusion) (Vibrio cholerae, UniProt Q9KR33 1-461).
T1 sequence: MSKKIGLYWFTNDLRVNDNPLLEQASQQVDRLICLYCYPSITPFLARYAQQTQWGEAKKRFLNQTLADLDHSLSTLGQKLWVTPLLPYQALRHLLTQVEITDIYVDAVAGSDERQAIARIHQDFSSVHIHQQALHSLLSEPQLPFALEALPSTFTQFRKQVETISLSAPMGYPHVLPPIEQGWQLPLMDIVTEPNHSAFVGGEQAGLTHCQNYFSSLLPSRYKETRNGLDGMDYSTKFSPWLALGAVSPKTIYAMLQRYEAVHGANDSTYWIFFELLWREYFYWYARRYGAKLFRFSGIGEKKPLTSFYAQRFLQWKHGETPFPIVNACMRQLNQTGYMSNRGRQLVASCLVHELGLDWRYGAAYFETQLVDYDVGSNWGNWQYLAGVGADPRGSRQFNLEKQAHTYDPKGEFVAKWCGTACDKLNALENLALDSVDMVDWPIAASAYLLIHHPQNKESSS
The experiment in a line: SPR; photoactivated, DTT; repair during injection; SPR (SensiQ Discovery, neutravidin BioCap chip), 1X PBS (10 mM phosphate, 2.7 mM KCl, 137 mM NaCl) pH 7.4, 0.005% Tween 20, 25 C, 50 uL/min; protein in PBS with 1 mM DTT. Particulars: protein: recombinant; tags: MBP (pMal-c2x, pUNC2002); label: 5'-biotin. (Surface plasmon resonance follows binding to a sensor surface in real time, without labels.)

Data set [2] concerns the target T2, VcPHR (CPD photolyase, MBP fusion) (Vibrio cholerae, UniProt Q9KNA8 1-469).
T2 sequence: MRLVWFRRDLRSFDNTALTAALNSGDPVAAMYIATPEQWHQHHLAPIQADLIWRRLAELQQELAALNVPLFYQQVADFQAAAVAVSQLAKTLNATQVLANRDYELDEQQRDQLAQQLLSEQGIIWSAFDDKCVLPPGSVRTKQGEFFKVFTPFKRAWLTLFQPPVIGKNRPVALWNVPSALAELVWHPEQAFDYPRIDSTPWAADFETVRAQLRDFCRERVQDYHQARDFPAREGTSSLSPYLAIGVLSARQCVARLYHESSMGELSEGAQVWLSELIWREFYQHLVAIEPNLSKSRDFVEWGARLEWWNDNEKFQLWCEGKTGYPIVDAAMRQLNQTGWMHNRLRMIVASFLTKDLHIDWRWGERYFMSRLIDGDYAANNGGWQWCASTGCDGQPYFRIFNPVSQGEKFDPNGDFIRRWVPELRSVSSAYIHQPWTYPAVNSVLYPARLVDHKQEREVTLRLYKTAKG
Described as above. Conditions: protein: recombinant, tags: MBP (pMal-c2x, pUNC2001).

Data set [3] concerns the target T1, CRY-DASH (VcCry1, MBP fusion). Briefly: SPR; photoactivated, DTT; described as nonspecific; SPR (SensiQ Discovery, neutravidin BioCap chip), 1X PBS (10 mM phosphate, 2.7 mM KCl, 137 mM NaCl) pH 7.4, 0.005% Tween 20, 25 C, 50 uL/min; protein in PBS with 1 mM DTT. Particulars: protein: recombinant; tags: MBP (pMal-c2x, pUNC2002); label: 5'-biotin on strand 1; blunt.

In data set [4] the target is T2, VcPHR (CPD photolyase, MBP fusion). The description is as above. Conditions: protein: recombinant, tags: MBP (pMal-c2x, pUNC2001).
In data set [5] the target is T1, CRY-DASH (VcCry1, MBP fusion). Briefly: SPR; photoactivated, DTT; nonspecific, similar to BSA; SPR (SensiQ Discovery, neutravidin BioCap chip), 1X PBS (10 mM phosphate, 2.7 mM KCl, 137 mM NaCl) pH 7.4, 0.005% Tween 20, 25 C, 50 uL/min; protein in PBS with 1 mM DTT. Conditions: protein: recombinant; tags: MBP (pMal-c2x, pUNC2002); label: 5'-biotin.
Data set [6] shares this target. Briefly: SPR; photoactivated, DTT; no significant binding, similar to BSA; SPR (SensiQ Discovery, neutravidin BioCap chip), 1X PBS (10 mM phosphate, 2.7 mM KCl, 137 mM NaCl) pH 7.4, 0.005% Tween 20, 25 C, 50 uL/min; protein in PBS with 1 mM DTT. Conditions: protein: recombinant; tags: MBP (pMal-c2x, pUNC2002); label: 5'-biotin on strand 1; blunt.
Setting [7] is: label: 5'-biotin on strand 1, blunt.

By Kd is commonly meant a measure of binding affinity in units of concentration. In the case of GACGCAGATCTACGAATTCGCTTAATTCGCTGCACCGGATCCCGCTAG (ssDNA, UV 254 nm irradiated, mostly CPD (mixed lesions, positions not defined)) [UV-damaged ssDNA 48-mer], the results for the dissociation constant Kd in data set [1] and in data set [2] (label: 5'-biotin) were 0.0637 µM and 0.0012 µM, respectively.

B1: undamaged dsDNA 48-mer (dsDNA)
DNA 1: GACGCAGATCTACGAATTCGCTTAATTCGCTGCACCGGATCCCGCTAG
DNA 2: CTAGCGGGATCCGGTGCAGCGAATTAAGCGAATTCGTAGATCTGCGTC
With B1, the Kd is 52.1 µM in data set [3] and 18.7 µM in data set [4] (setting [7]).

As to GACGCAGATCTACGAATTCGCTTAATTCGCTGCACCGGATCCCGCTAG (ssDNA) [undamaged ssDNA 48-mer], the Kd in data set [4] (label: 5'-biotin) amounted to 14 µM; in data set [5], 117 µM.

B2: UV-damaged dsDNA 48-mer (dsDNA)
DNA 1: GACGCAGATCTACGAATTCGCTTAATTCGCTGCACCGGATCCCGCTAG
DNA 2: CTAGCGGGATCCGGTGCAGCGAATTAAGCGAATTCGTAGATCTGCGTC
modifications: strand 1 UV 254 nm irradiated, mostly CPD (mixed lesions, positions not defined); complement undamaged
For the molecule B2, the equilibrium dissociation constant (Kd) in data set [2] (setting [7]) is 0.022 µM; in data set [6], 17.8 µM.
